From patent US20180194833A1 (H LUNDBECK A S, published 2018)

B1: Comparator antibody 9E4 (antibody, human IgG1, kappa, V domains shown)
VH: EVQLVESGGGLVQPGGSLRLSCAASGFTFSNYGMSWVRQAPGKGLEWVASISSGGGSTYYPDNVKGRFTISRDNAKNSLYLQMNSLRAEDTAVYYCARGGAGIDYWGQGTLVTVSS
VL: DIQMTQSPSSLSASVGDRVTITCKSIQTLLYSSNQKNYLAWFQQKPGKAPKLLIYWASIRKSGVPSRFSGSGSGTDFTLTISSLQPEDLATYYCQQYYSYPLTFGGGTKLEIKR
notes: also called h9E4; human 9E4
B2: GM285 (antibody, human IgG1, kappa, V domains shown)
VH: EVQLLESGGGLVQPGGSLRLSCAASGFTFSRFTMTWVRQAPGKGLEWVSAISGSGGGTSYADSVKGRLTVSRDNSKNTLYLQMNSLRAEDTAVYYCAKNWAPFDYWGQGTLVTVSS
VL: not shown
notes: also called mab285
B3: GM37 (antibody, human IgG1, kappa, V domains shown)
VH: EVQLLESGGGLVQTGGSLRLSCAASGFTFSSYAMTWVRQAPGKGLEWVSAIRSNGDRTDYADSVKGRFTISRDNSQNTLYLQMNSLRAEDTAVYYCAKNWAPFDSWGQGTLVTVSS
VL: not shown
notes: also called GM37 wild type (wt); GM37wt

Legend:
Human alpha-synuclein = Human alpha-synuclein (human, UniProt P37840 1-140); experiment: SPR (BIAcore 3000), antibody captured by goat anti-human IgG, human alpha-synuclein 3.125-100 nM as analyte
Description: Goat anti-human IgG was immobilized on the CM5 chip. […] The sensor surface was regenerated between each cycle.

Mouse alpha-synuclein = Mouse alpha-synuclein (mouse, UniProt O55042 1-140); experiment: Fortebio Octetred

| Binder | binding result (Human alpha-synuclein) | binding result (Mouse alpha-synuclein) |
| --- | --- | --- |
| B1 | binds |  |
| B2 |  | binds |
| B3 |  | binds |
